This passage reports increase in proliferation, GPR49-3T3 clone 28 results from patent publication US20140256041A1.

The target in this test is Human GPR49 (LGR5), full length, on cells (human) (UniProt O75473). The test can be described thus: cell-based or functional assay.
Human GPR49 (LGR5), full length, on cells (human), sequence (O75473 22-907 limits assumed): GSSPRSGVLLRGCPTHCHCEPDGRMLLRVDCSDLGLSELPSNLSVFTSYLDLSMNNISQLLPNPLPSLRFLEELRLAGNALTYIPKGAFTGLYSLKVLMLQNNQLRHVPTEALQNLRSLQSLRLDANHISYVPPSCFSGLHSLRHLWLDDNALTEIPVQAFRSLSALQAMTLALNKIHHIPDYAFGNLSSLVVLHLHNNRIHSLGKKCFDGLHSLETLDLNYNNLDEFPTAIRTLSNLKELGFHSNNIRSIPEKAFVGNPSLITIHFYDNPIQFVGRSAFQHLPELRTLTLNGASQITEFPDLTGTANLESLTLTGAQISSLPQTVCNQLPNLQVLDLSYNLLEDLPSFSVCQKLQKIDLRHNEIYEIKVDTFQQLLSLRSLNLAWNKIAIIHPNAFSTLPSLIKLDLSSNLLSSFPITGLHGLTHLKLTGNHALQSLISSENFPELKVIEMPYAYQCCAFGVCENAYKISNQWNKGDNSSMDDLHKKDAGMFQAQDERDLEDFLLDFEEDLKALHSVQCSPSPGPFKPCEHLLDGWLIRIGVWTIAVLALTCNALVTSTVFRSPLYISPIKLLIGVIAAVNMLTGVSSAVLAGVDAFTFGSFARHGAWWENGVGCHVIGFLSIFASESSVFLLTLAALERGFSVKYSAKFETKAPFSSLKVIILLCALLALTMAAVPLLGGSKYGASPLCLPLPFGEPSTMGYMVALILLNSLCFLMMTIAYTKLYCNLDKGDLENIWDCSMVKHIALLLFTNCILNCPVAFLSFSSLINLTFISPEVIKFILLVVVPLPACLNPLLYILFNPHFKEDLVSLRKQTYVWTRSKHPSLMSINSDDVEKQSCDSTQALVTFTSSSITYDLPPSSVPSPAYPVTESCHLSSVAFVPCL

In turn, R-spondin 1 (ligand) displayed an increase in proliferation, GPR49-3T3 clone 28 of 4 fold.
